Source: US20240158785A1 (Chugai, published 2024)

T1: human IL-6 receptor (human, UniProt P08887 20-357, limits assumed, biotin-labeled in the ELISA and Octet assays (position not given))
T1 construct: also called hIL-6R; biotin-labeled hIL-6R
T1 sequence: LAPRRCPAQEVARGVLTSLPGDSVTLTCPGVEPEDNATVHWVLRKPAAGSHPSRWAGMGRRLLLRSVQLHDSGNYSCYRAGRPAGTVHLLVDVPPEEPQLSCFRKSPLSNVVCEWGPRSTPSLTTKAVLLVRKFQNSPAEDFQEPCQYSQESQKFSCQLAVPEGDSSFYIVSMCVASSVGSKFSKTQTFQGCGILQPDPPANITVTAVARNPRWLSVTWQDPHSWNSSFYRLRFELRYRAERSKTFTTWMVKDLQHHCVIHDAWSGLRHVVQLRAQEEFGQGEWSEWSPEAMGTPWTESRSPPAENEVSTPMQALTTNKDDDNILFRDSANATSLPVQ

B1: 6RNMSC1-2_F02 (antibody, human IgG1, V domains shown)
VH: QVQLVQSGAEVKKPGSSVKVSCKASGGTFSSYAISWVRQAPGQGLEWMGGIIPIFGTANYAQKFQGRVTITADESTSTAYMELSSLRSEDTAVYYCARDAPVVARPRGAFDIWGQGTMVTVSS
VL: DIVMTQTPLSSPVTLGQPASISCRSSQSLVHSDGNTYLSWLQQRPGQPPRLLIHEISNRFSGVPDRFSGSGAGTNFTLKISRVEAEDVGVYYCMQATQFPRTFGQGTKVEIK
notes: Variable region genes were inserted into a human IgG1/Kappa expression plasmid; also called clone 6RNMSC1-2_F02; antibody 6RNMSC1-2_F02
B2: GC413 (antibody, V domains shown)
VH: QVQLVQSGAEVKKPGASVKVSCKASGYTFTDYEMHWIRQPPGQGLEWIGAIDPKTGDTAYSQKFKGRVTLTADKSTSTAYMELSSLTSEDTAVYYCTRFYSYTYWGQGTLVTVSS
VL: DIVMTQSPLSLPVTPGEPASISCRSSQSLVHSNRNTYLHWYQQKPGQAPRLLIYKVSNRFSGVPDRFSGSGSGTDFTLKISRVEAEDVGVYYCSQNTHVPPTFGQGTKLEIK
notes: also called anti-human glypican 3 antibody GC413; negative control
B3: HSADSA1-6_020 (Fab, V domains shown)
VH: EVQLVESGGDLVKPGGGLRLSCAASGFTFSSHTMNWVRQAPGKGLEWVSSISSRSNHATYADSVKGRFTISRDNAKNSLYLQMNSLRAEDTAVYYCARFGKKGRYLWVFDYWGQGTLVTVSS
VL: QSALTQPPSASGSPGQTVTISCTGTSSDVGDYNYVSWYQQHPGKAPKLMIYYVSKRPSGVPDRFSGSKSGNTASLTVSGLQAEDEADYFCSLTTDSLNPVFGGGTKLTVL
notes: also called clone HSADSA1-6_020
B4: 6RAD2C1-4_030 (antibody, human IgG1, lambda, V domains shown)
VH: EVQLVESGGDLVKPGGGLRLSCAASGFTFSSYTMNWVRQAPGKGLEWVSSISSRSGYAYYADSVKGRFTISRDNAKNSLYLQMNSLRAEDTAVYYCARFGALNTLNWVFDYWGQGTLVTVSS
VL: QSALTQPPSASGSPGQTVTISCTGTSTDVGDYNYVSWYQQHPGKAPKLMIYQVSKKPSGVPDRFSGSKSGNTASLTVSGLQAEDEADYFCSTRTANAGVLFGGGTKLTVLG
notes: also called 6RAD2C1-4_30
B5: 6RAD2C1-4_001 (antibody, human IgG1, lambda, V domains shown)
VH: EVQLVESGGDLVKPGGGLRLSCAASGFTFSGHTMNWVRQAPGKGLEWVSSISSRSNYIYYADSVKGRFTISRDNAKNSLYLQMNSLRAEDTAVYYCARYGRLHDRNWVFDYWGQGTLVTVSS
VL: QSALTQPPSASGSPGQTVTISCTGTSTDVGDYNYVSWYQQHPGKAPKLMIYQVSKKPSGVPDRFSGSKSGNTASLTVSGLQAEDEADYFCSSRSYGAGVVFGGGTKLTVLG
notes: also called 6RAD2C1-4_01
B6: 6RDL3C1-4_085 (antibody, human IgG1, lambda, V domains shown)
VH: EVQLVESGGDLVKPGGGLRLSCAASGFTFSGHTMNWVRQAPGKGLEWVSSISSRSNYIYYADSVKGRFTISRDNAKNSLYLQMNSLRAEDTAVYYCARYGRLHDRNWVFDYWGQGTLVTVSS
VL: QSALTQPPSASGSPGQTVTISCTGTSTDVGDYNYVSWYQQHPGKAPKLMIYQVSKKPSGVPDRFSGSKSGNTASLTVSGLQAEDEADYFCSSRSYGAGVVFGGGTKLTVLG
notes: also called 6RDL3C1-4_85
B7: 6RAD2C1-4_076 (antibody, human IgG1, lambda, V domains shown)
VH: EVQLVESGGDLVKPGGGLRLSCAASGFTFSGYTMNWVRQAPGKGLEWVSSISSRSSYIDYADSVKGRFTISRDNAKNSLYLQMNSLRAEDTAVYYCARYGALGQRNWVFDYWGQGTLVTVSS
VL: QSALTQPPSASGSPGQTVTISCTGTSTDVGDYNYVSWYQQHPGKAPKLMIYQTSKRPSGVPDRFSGSKSGNTASLTVSGLQAEDEADYFCSSRSIKHPVFGGGTKLTVLG
notes: also called 6RAD2C1-4_76
B8: 6RAD2C1-4_005 (antibody, human IgG1, lambda, V domains shown)
VH: EVQLVESGGDLVKPGGGLRLSCAASGFTFSTHTMNWVRQAPGKGLEWVSSISSRSSYIHYADSVKGRFTISRDNAKNSLYLQMNSLRAEDTAVYYCARFGKLGERNWVFDYWGQGTLVTVSS
VL: QSALTQPPSASGSPGQTVTISCTGTSTDVGDYNYVSWYQQHPGKAPKLMIYQVSKKPSGVPDRFSGSKSGNTASLTVSGLQAEDEADYFCSVRSDGHGPMFGGGTKLTVLG
notes: also called 6RAD2C1-4_05
B9: 6RAD2C1-4_026 (antibody, human IgG1, lambda, V domains shown)
VH: EVQLVESGGDLVKPGGGLRLSCAASGFTFSGYTMNWVRQAPGKGLEWVSSISSRSNYAHYADSVKGRFTISRDNAKNSLYLQMNSLRAEDTAVYYCARYGRLGDRNWVFDYWGQGTLVTVSS
VL: QSALTQPPSASGSPGQTVTISCTGTSTDVGAYNYVSWYQQHPGKAPKLMIYKVSKKPSGVPDRFSGSKSGNTASLTVSGLQAEDEADYFCSLRAATTGVLFGGGTKLTVLG
notes: also called 6RAD2C1-4_26
B10: 6RAD2C1-4_011 (antibody, human IgG1, lambda, V domains shown)
VH: EVQLVESGGDLVKPGGGLRLSCAASGFTFSGHTMNWVRQAPGKGLEWVSSISSRSSYIYYADSVKGRFTISRDNAKNSLYLQMNSLRAEDTAVYYCARYGALGQMNWVFDYWGQGTLVTVSS
VL: QSALTQPPSASGSPGQTVTISCTGTSTDVGDYNYVSWYQQHPGKAPKLMIYSVSKRPSGVPDRFSGSKSGNTASLTVSGLQAEDEADYFCSSRSSSMNVLFGGGTKLTVLG
notes: also called 6RAD2C1-4_11

Legend:
[1] = target: T1, human IL-6 receptor; test: SPR (Biacore T200), antibody captured on protein A, hIL-6R as analyte, 100 µmol/L kynurenine, 25 C; 100 µmol/L kynurenine; Biacore, antibody captured, hIL-6R as analyte
Method: An appropriate amount of protein A (Invitrogen) was immobilized onto Sensor chip CM5 (GE Healthcare) by the amine coupling method. The antibody of interest was captured onto the sensor chip, and the antigen hIL-6R was allowed to interact. […] The interaction with the antigen hIL-6R was measured at 25° C. hIL-6R was diluted with the running buffer, the running buffer containing 100 μmol/L kynurenine, or, as a control, the running buffer containing 10 mmol/L ATP.
Then, the running buffer was run at a flow rate of 10 μL/min for one minute to observe the dissociation of hIL-6R from the antibody. Next, 10 mmol/L glycine-HCl, pH 1.5, was injected at a flow rate of 30 μL/min for 30 seconds to regenerate the sensor chip. […] Each parameter was calculated using Biacore T200 Evaluation Software (GE Healthcare).

[2] = target: T1, human IL-6 receptor; test: ELISA: biotin-labeled hIL-6R on a streptavidin plate, purified IgG, absorbance 450 nm; with 1 mM kynurenine, tryptophan, phenylalanine, anthranilic acid, 3-hydroxykynurenine, kynurenic acid, or none (Table 14)
Method: The antigen used was biotin-labeled hIL-6R.
First, a StreptaWell 96 microtiter plate (Roche) was coated with 100 μL of PBS containing biotin-labeled antigens at room temperature for one hour or longer. […] 100 μL of each of the purified IgGs prepared at 2.5 μg/mL using Sample Buffer containing small molecules at the final concentrations shown in Table 14 were added to each well, and the plate was let still at room temperature for one hour to allow each IgG to bind to the antigen present in each well. After washing with Wash Buffer containing amino acids and amino acid metabolites at the final concentrations shown in Table 14, HRP-conjugated anti-human IgG antibody (BIOSOURCE) diluted with Sample Buffer containing amino acids and amino acid metabolites was added to each well, and the plate was incubated for one hour. After washing with Wash Buffer containing the respective amino acids and amino acid metabolites, the chromogenic reaction of TMB single solution (ZYMED) added in each well was terminated by adding sulfuric acid.

[3] = target: T2, human serum albumin (human, UniProt P02768 25-609, biotin-labeled antigen (position not given)); test: phage ELISA: biotin-labeled HSA on a streptavidin plate, purified Fab-displaying phage, HRP anti-M13 antibody, absorbance 450 nm; with or without 10 mM ATP and adenosine
T2 construct: also called HSA

[4] = target: T1, human IL-6 receptor; test: SPR (Biacore T200), hIL-6R amine-coupled on CM5, antibody as analyte, equilibrium values, 1 mM ATP, 25 C; 1 mM ATP; Biacore, hIL-6R on CM5, antibody concentration series, 25 C
Method: The running buffer used was 20 mmol/L ACES, 150 mmol/L NaCl, 0.05% (w/v) Tween20, pH 7.4. The assay was performed at 25° C. hIL-6R was immobilized onto Sensor chip CM5 by amine coupling, and interacted with the antibodies as an analyte for 120 seconds to observe changes in the amount of binding. Antibodies were diluted with the running buffer or the running buffer added with any one of ATP, ADP, AMP, cAMP, and adenosine (ADO). The final concentration of each small molecule was adjusted to 1 mM, and the final concentration of the antibody was adjusted to 1 μM. Meanwhile, under the 1 mM ATP condition, the assay was carried out with a series of stepwise antibody concentrations. The dissociation constant KD (mol/L) of each clone for hIL-6R was calculated from a plot of equilibrium values against antibody concentration. The parameters were calculated using the Biacore T200 Evaluation Software (GE Healthcare).

Row | Binder | Kd [4] [µM] | other results
1 | B1 | – | Kd [1]: 1.5 µM
2 | B2 | – | binding result [2]: no binding (tested: 2.5 µg/mL)
3 | B3 | – | binding result [3]: binds
4 | B4 | 0.33 | –
5 | B5 | 0.3 | –
6 | B6 | 0.39 | –
7 | B7 | 0.25 | –
8 | B8 | 0.34 | –
9 | B9 | 0.21 | –
10 | B10 | 0.23 | –
